Laboratory results from patent WO2001000678A1 (dated 2001).

Molecular target: HIV-1 MN viral lysate (native gp120) (HIV-1 isolate MN, UniProt P05877 32-513)
Experiment: ELISA, biotinylated Fab on viral lysate; reference HIV-1 IIIb lysate

B1: Fab 7 (Fab, V domains shown)
VH: EVQLQESGPGLVKPSETLSLTCTVSGGSISSSSYYWGWIRQPPGKGLEWIGSIYYSGSTYYNPSLKSRVTISVDTSKNQFSLKLSSVTAAYTAVYYCARRCTSGVCYGAFDYWGQGTPVTVSS
VL: DLVMTQSPSFLSASVGDRVTITCRASQGISSYLAWYQQKSGKAPKLLIYGTSILQSGVPSRFSGSGSGTESTLTISSLQPEDFATYYCQQLNSYPITFGQGTRLEIK
binding relative to the level seen with IIIb: ~50%
